B1: SEQ ID NO 6 (designed binder, not shown: small tags and cut ends)
chain: MLPAPKNLVVSRVTEDSARLSWTAPDAAFDSFPIIYMETFSRGEAIVLTVPGSERSYDLTGLKPGTEYRVPIGGVKGGSSSCPLSAIFTT
B2: SEQ ID NO 1 (designed binder, not shown: small tags and cut ends)
chain: MLPAPKNLVVSRVTEDSARLSWTAPDAAFDSFPITYIEAVVLGEAIVLTVPGSERSYDLTGLKPGTEYPVGISGVKGGHNSMPLSAIFTT
B3: SEQ ID NO 63 (designed binder, not shown: small tags and cut ends)
chain: MLPAPKNLVVSRVTEDSARLSWTAPDAAFDSFCISYYERMGRGEAIVLTVPGSERSYDLTGLKPGTEYMVYIFGVKGGLNSLPLSAIFTT
B4: SEQ ID NO 40 (designed binder, not shown: small tags and cut ends)
chain: MLPAPKNLVVSRVTEDSARLSWTAPDAAFDSFTIDYWENRCPGEAIVLTVPGSERSYDLTGLKPGTEYCVWISGVKGGYSSWPLSAIFTT
B5: SEQ ID NO 62 (designed binder, not shown: small tags and cut ends)
chain: MLPAPKNLVVSRVTEDSARLSWTAPDAAFDSFKIRYTETRSIGEAIVLTVPGSERSYDLTGLKPGTEYCVPIGGVKGGDSSWPLSAISTT
B6: SEQ ID NO 66 (designed binder, not shown: small tags and cut ends)
chain: MLPAPKNLVVSRVTEDSARLSWTAPDAAFDSFTIDYDEPRSPGEAIVLTVPGSERSYDLTGLKPGTEYRVFIWGIKGGDTSFPLSAIFTT
B7: SEQ ID NO 54 (designed binder, not shown: small tags and cut ends)
chain: MLPAPKNLVVSRVTEDSARLSWTAPDAAFDSFAIAYGEHIVIGEAIVLTVPGSERSYDLTGLKPGTEYMVPIAGVKGGPISLPLSAIFTT
B8: SEQ ID NO 76 (designed binder, not shown: small tags and cut ends)
chain: MLPAPKNLVVSRVTEDSARLSWTAPDAAFDSFTIEYYENIGIGEAIVLTVPGSERSYDLTGLKPGTEYSVPIVGVKGGPYSHPLSAIFTT
B9: SEQ ID NO 4 (designed binder, not shown: small tags and cut ends)
chain: MLPAPKNLVVSEVTEDSARLSWQGVARAFDSFLITYRDQIFAGEVIVLTVPGSERSYDLTGLKPGTEYPVWIQGVKGGSPSAPLSAESTT
B10: SEQ ID NO 73 (designed binder, not shown: small tags and cut ends)
chain: MLPAPKNLVVSEVTEDSARLSWQGVARAFDSFLITYREQIFAGEVIVLTVPGSERSYDLTGLKPGTEYPVWIQGVKGGSPSAPLSAESTT
B11: SEQ ID NO 70 (designed binder, not shown: small tags and cut ends)
chain: MLPAPKNLVVSRVTEDSARLSWQGVARAFDSFLITYREQIFAGEVIVLTVPGSERSYDLTGLKPGTEYPVWIQGVKGGDLSNPLSAIFTT
B12: SEQ ID NO 53 (designed binder, not shown: small tags and cut ends)
chain: MLPAPENLVVSEVTEDSARLSWQGVARAFDSFLITYREQIFAGEVIVLTVPGSERSYDLTGLKPGTEYPVWIQGVKGGSPSAPLSAESTT
B13: SEQ ID NO 41 (designed binder, not shown: small tags and cut ends)
chain: MLPAPKNLVVSRVTEDSARLSWQGVARAFDSFLITYREQIFAGEVIVLTVPGSERSYDLTGLKPGTEYPVWIQGVKGGHLSDPLSAIVTT
B14: SEQ ID NO 7 (designed binder, not shown: small tags and cut ends)
chain: MLPAPKNLVVSDVTEDSARLSWQGVARAFDSFLITYREQIFAGEVIVLTVPGSERSYDLTGLKPGTEYPVWIQGVKGGSPSAPLSAEFTT
B15: SEQ ID NO 5 (designed binder, not shown: small tags and cut ends)
chain: MLPAPKNLVVSEVTEDSARLSWQGVARAFDSFLITYREQIFAGEVIVLTVPGSERSYDLTGLKPGTEYWVYIWGVKGGKPSFPLRAGFTT
B16: SEQ ID NO 43 (designed binder, not shown: small tags and cut ends)
chain: MLPAPKNLVVSRVTEDSARLSWTAPDAAFDSFMIVYYEYTRFGEAIVLTVPGSERSYDLTGLKPGTEYTVPIDGVKGGGRSSPLSAIFTT
B17: SEQ ID NO 47 (designed binder, not shown: small tags and cut ends)
chain: MLPAPKNLVVSRVTEDSARLSWTAPDAAFDSFGIVYLEMMVTGEAIVLTVPGSERSYDLTGLKPGTEYDVPILGVKGGTRSVPLSAIFTT
B18: SEQ ID NO 56 (designed binder, not shown: small tags and cut ends)
chain: MLPAPKNLVVSRVTEDSARLSWTAPDAAFDSFSIGYVELVLLGEAIVLTVPGSERSYDLTGLKPGTEYDVLIPGVKGGSLSRPLSAIFTT
B19: SEQ ID NO 71 (designed binder, not shown: small tags and cut ends)
chain: MLPAPKNLVVSRVTEDSARLSWTAPDAAFDSFPISYLELSLYGEAIVLTVPGSERSYDLTGLKPGTEYPVGIAGVKGGVVSRPLSAIFTT
B20: SEQ ID NO 74 (designed binder, not shown: small tags and cut ends)
chain: MLPAPKNLVVSRVTEDSARLSWTAPDAAFDSFSITYLEWWNLGEAIVLTVPGSERSYDLTGLKPGTEYMVTIPGVKGGMSSYPLSAIFTT
B21: SEQ ID NO 48 (designed binder, not shown: small tags and cut ends)
chain: MLPAPKNLVVSRVTEDSARLSWTAPDAAFDSFLIYYEEGYLEYYYSGEAIVLTVPGSERSYDLTGLKPGTEYYVGIVGVKGGGLSGPLSAISTT
B22: SEQ ID NO 61 (designed binder, not shown: small tags and cut ends)
chain: MLPAPKNLVVSRVTEDSARLSWTAPDAAFDSFQIVYSELWIKGEAIVLTVPGSERSYDLTGLKPGTEYQVPIPGVKGGRNSFPLSAIFTT
B23: SEQ ID NO 59 (designed binder, not shown: small tags and cut ends)
chain: MLPAPKNLVVSRVTEDSARLSWTAPDAAFDSFVYNEVHWIGEAIVLTVPGSERSYDLTGLKPGTEYFVGIYGVKGGHWSKPLSAIFTT
B24: SEQ ID NO 72 (designed binder, not shown: small tags and cut ends)
chain: MLPAPKNLVVSRVTEDSARLSWTAPDAAFDSFTIGYREWYWYGEAIVLTVPGSERSYDLTGLKPGTEYNVPISGVKGGLDSFPLSAIFTT
B25: SEQ ID NO 67 (designed binder, not shown: small tags and cut ends)
chain: MLPAPKNLVVSRVTEDSARLSWTAPDAAFDSFTILYAEQAQFGEAIVLTVPGSERSYDLTGLKPGTEYPITGVKGGTRSGPLSAISTT
B26: SEQ ID NO 78 (designed binder, not shown: small tags and cut ends)
chain: MLPAPKNLVVSRVTEDSARLSWTAPDAAFDSFGIGYYEHKRFGEAIQLSVPGSERSYDLTGLKPGTEYEVDIEGVKGGVLSWPLFAEFTT
B27: SEQ ID NO 50 (designed binder, not shown: small tags and cut ends)
chain: MSLPAPKNLVVSRVTEDSARLSWTAPDAAFDSFTIHYREFQLSGEAIVLTVPGSERSYDLTGLKPGTEYDVPIEGVKGGPGSRPLSAIFTT
B28: SEQ ID NO 39 (designed binder, not shown: small tags and cut ends)
chain: MLPAPKNLVVSRVTEDSARLSWTAPDAAFDSFPIPYTEPPDPGEAIVLTVPGSERSYDLTGLKPGTEYLVTILGVKGGSMSVPLSAIFTT
B29: SEQ ID NO 37 (designed binder, not shown: small tags and cut ends)
chain: MLPAPKNLVVSRVTEDSARLSWTTPDAAFDSFPIYYWEVTITGEAIYLSVPGSERSYDLTGLKPGTEYPVDIPGVKGGAASPPLSAIFTT
B30: SEQ ID NO 38 (designed binder, not shown: small tags and cut ends)
chain: MLPAPKNLVVSRVTEDSARLSWTAPDAAFDSFPILYLEHTVRSEAIVLTVPGSERSYDLTDLKPGTEYCVPIDGVKGGLRSRPLSAIFTT
B31: SEQ ID NO 75 (designed binder, not shown: small tags and cut ends)
chain: MLPAPKNLVVSRVTEDSARLSWTAPDAAFDSFTISYGEEALIGEAIYLRVPGSERSYDLTGLKPGTEYYVHIEGVKGGSWSQPLAAAFTT
B32: SEQ ID NO 42 (designed binder, not shown: small tags and cut ends)
chain: MLPAPKNLVVSRVTEDSARLSWTAPDAAFDSFLIPYAETSPSGEAIVLTVPGSERSYDLTGLKPGTEYSVLIHGVKGGDYSEPLSAIFTT
B33: SEQ ID NO 77 (designed binder, not shown: small tags and cut ends)
chain: MLPAPKNLVVSRVTEDSARLSWTAPDAAFDSFPIAYAEPRPDGEAIVLTVPGSERSYDLTGLKPGTEYSVLIHGVKGGLLSSPLSAIFTT
B34: SEQ ID NO 44 (designed binder, not shown: small tags and cut ends)
chain: MLPAPKNLVVSRVTEDSARLSWTAPDAAFDSFFIPYAEPSPTGEAIVLTVPGSERSYDLTGLKPGTEYSVLIHGVKGGHLSDPLSAIVTT
B35: SEQ ID NO 64 (designed binder, not shown: small tags and cut ends)
chain: MLPAPKNLVVSRVTEDSARLSWTAPDAAFDSFYIVYAEPIPNGEAIVLTVPGSERSYDLTGLKPGTEYSVLIHGVKGGRNSDPLSAIFTT
B36: SEQ ID NO 68 (designed binder, not shown: small tags and cut ends)
chain: MLPAPKNLVVSRVTEDSARLSWTAPDAAFDSFIIPYAEVRPDGEAIVLTVPGSERSYDLTGLKPGTEYSVLIHGVKGGHLSDPLSAISTT
B37: SEQ ID NO 65 (designed binder, not shown: small tags and cut ends)
chain: MLPAPKNLVVSRVTKDSARLSWTAPDAAFDSFPIAYAEPRPDGEAIVLTVPGSERSYDLTGLKPGTEYSVLIHGVKGGLLSSPLSAIFTT
B38: SEQ ID NO 46 (designed binder, not shown: small tags and cut ends)
chain: MLPAPKNLVVSRVTEDSARLSWTAPDAAFDSFIIPYAEVRPDGEAIVLTVPGSERSYDLTGLKPGTEYSVLIHGVKGGKLSLPLSAIFTT
B39: SEQ ID NO 57 (designed binder, not shown: small tags and cut ends)
chain: MLPAPKNLVVSRVTEDSARLSWTAPDAAFDSFAIPYAELSRNGEAIVLTVPGSERSYDLTGLKPGTEYTVLIHGVKGGCLSDPLSAIFTT

human serum albumin (human), sequence (P02768 25-609 limits assumed): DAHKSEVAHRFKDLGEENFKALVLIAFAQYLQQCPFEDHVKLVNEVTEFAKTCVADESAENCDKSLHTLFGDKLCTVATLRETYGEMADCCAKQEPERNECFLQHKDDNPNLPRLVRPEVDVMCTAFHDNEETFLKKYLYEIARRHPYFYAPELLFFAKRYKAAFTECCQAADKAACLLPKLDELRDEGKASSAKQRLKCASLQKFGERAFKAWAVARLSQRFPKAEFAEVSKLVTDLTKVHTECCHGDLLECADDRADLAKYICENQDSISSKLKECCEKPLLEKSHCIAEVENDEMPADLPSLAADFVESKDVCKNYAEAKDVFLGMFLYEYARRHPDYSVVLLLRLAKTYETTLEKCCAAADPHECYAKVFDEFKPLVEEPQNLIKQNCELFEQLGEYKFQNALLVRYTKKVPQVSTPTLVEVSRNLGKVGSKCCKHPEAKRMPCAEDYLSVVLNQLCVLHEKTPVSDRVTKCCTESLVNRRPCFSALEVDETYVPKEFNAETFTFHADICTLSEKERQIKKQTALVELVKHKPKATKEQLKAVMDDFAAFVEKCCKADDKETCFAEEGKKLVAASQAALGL

This assay concerns the target human serum albumin (human) (UniProt P02768). As to the kind of experiment: primary solution ELISA screen.
On to B1, for which the RLU was 7300 RLU.

B2 came in with an RLU of 15800 RLU.

B3 had an RLU of 5700 RLU.

B4 returned an RLU of 13600 RLU.

For B5, the RLU was 8100 RLU.

Take B6: the RLU was found to be 8100 RLU.

B7 displayed an RLU of 11700 RLU.

In turn, B8 showed an RLU of 16300 RLU.

Molecule B9 returned an RLU of 174000 RLU.

Molecule B10 yielded an RLU of 20200 RLU.

B11 showed an RLU of 94800 RLU.

B12 displayed an RLU of 32000 RLU.

As to B13, the RLU is 115000 RLU.

Regarding B14, the RLU is 26100 RLU.

B15 returned an RLU of 45000 RLU.

The molecule B16 yielded an RLU of 21500 RLU.

Turning to B17, the RLU came to 20400 RLU.

The molecule B18 yielded an RLU of 19400 RLU.

B19 yielded an RLU of 27500 RLU.

For the molecule B20, the RLU is 14600 RLU.

As to B21, the RLU was determined as 115000 RLU.

Molecule B22 had an RLU of 13600 RLU.

The molecule B23 had an RLU of 16400 RLU.

B24 yielded an RLU of 8950 RLU.

B25 registered an RLU of 14200 RLU.

With B26, the RLU stood at 9350 RLU.

In turn, B27 returned an RLU of 16000 RLU.

As to B28, the RLU is 51100 RLU.

As for B29, the RLU turned out to be 28600 RLU.

On to B30, for which the RLU is 8150 RLU.

Consider B31, for which the RLU stood at 3700 RLU.

For the molecule B32, the RLU turned out to be 1000 RLU.

For B33, the RLU came out at 10400 RLU.

For B34, the RLU was found to be 56600 RLU.

B35: the RLU came out at 6000 RLU.

B36 returned an RLU of 38400 RLU.

B37 showed an RLU of 16000 RLU.

For B38, the RLU stood at 8150 RLU.

Turning to B39, the RLU amounted to 38800 RLU.

For the origin of these results see patent publication US20220332795A1.
